Changes are numbered by the printed parent chain. Names may count otherwise. One block for each binder: values may come before it.
Molecular target: His-PKM2, purified recombinant (UniProt P14618-1 1-531)
Test: pull-down

Sequence of His-PKM2, purified recombinant (P14618 whole entry): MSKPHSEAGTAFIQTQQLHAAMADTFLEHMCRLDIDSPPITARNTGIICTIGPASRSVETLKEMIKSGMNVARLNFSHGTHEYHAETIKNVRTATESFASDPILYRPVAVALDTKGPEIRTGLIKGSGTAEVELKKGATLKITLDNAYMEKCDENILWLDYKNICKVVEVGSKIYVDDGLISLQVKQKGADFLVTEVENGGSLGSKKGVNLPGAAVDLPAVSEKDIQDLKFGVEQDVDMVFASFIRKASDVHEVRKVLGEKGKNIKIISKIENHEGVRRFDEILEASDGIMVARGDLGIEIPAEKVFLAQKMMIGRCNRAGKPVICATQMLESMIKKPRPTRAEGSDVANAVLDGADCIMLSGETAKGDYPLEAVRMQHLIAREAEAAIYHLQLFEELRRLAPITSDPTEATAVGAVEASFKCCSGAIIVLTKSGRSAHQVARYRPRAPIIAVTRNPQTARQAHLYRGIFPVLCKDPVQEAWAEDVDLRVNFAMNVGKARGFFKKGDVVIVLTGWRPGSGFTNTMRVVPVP

- binding result: binds
B1: GST-KHK-A (enzyme)
chain: MEEKQILCVGLVVLDVISLVDKYPKEDSEIRCLSQRWQRGGNASNSCTVLSLLGAPCAFMGSMAPGHVADFVLDDLRRYSVDLRYTVFQTTGSVPIATVIINEASGSRTILYYDRSLPDVSATDFEKVDLTQFKWIHIEGRNASEQVKMLQRIDAHNTRQPPEQKIRVSVEVEKPREELFQLFGYGDVVFVSKDVAKHLGFQSAEEALRGLYGRVRKGAVLVCAWAEEGADALGPDGKLLHSDAFPPPRVVDTLGAGDTFNASVIFSLSQGRSVQEALRFGCQVAGKKCGLQGFDGIV

- binding result: binds
B2: GST-KHK-A G257R (enzyme)
chain: B1 chain with G257R
